{
  "source": "paper PMC11327020",
  "biological_target": "CXCR4 on THP-1 cells (human (endogenous in THP-1)) (UniProt P61073)",
  "sequence (P61073 whole entry)": "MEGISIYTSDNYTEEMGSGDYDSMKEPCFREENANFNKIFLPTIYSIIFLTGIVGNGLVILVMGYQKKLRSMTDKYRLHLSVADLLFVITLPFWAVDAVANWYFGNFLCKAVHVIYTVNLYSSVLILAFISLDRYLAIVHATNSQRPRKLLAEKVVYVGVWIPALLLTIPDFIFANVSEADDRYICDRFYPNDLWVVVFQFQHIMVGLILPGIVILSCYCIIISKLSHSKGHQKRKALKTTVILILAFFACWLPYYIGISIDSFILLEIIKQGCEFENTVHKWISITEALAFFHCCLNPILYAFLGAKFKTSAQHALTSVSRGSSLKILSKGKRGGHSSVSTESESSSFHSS",
  "data": [
    {"substance": "Recombinant human stromal cell-derived factor-1 (SDF-1/CXCL12), intact (from UniProt P48061 22-93) (ligand)", "values": [
      {"measurement": "CXCR4 internalization (loss of surface CXCR4 by flow cytometry) in THP-1 cells, 100 ng/mL SDF-1 for 15 minutes; uncut SDF-1, and SDF-1 pre-incubated with COAM 100x before protease at similar levels (% of receptor internalization)", "value": 25}
    ]}
  ]
}
